Measured values taken from PMC2574963.

Target: Heat shock protein 90α (human) (UniProt P07900)
Assay: pull-down

- percent eluted, Hsp70 alone without m3 (control beads' nonadsorbed = 100%): 18%
- percent nonadsorbed, Hsp70 alone without m3 (control beads' nonadsorbed = 100%): 70%
Substance: Recombinant human Hsp70 (from UniProt P0DMV8 1-641) (natural protein)
